Changes are numbered by the printed parent chain. Names may count otherwise.
B1: A432P, M279F: double mutant of bx9 SEQ ID NO:1 (protein)
chain: MASSRTGAGAGGRVVVFPFPFQGHFNPVMRLARALHARGLAITVFHSGALDPADYPADYRFVPVTVEADPKLLASEDIAAIVTTLNASCDAPFRARLSALLAAEGRDSVRCVFTDVSWNAVLTASSDLGVPALGMMTASAASLRDYMAYRTLIDKGYLPVKEERKEDPVPELPPYLVKDLLRVDTSDLEEFAELLARTVTAARRASGLIFNTFPLIETDTLAEIHKALSVPVFAVAPLNKLVPTATASLHGVVQADRGCLQWLDTQQPGSVLYVSFGSFAAMDPHEFVELAWGLADSKRPFVWVVRPNLIRGFESGALPDGVEDEVRGRGIVVAWAPQEEVLAHPAVGGFLTHNGWNSTVEAISEGVPMVCCPRHGDQFGNMRYVCDVWKVGTELVGEQLERGQVKAAIDRLFGTKEGEEIKERMKEFKIAPAKGIGIGVDVDETASPRTDLTDLVDLIKSF
modifications: Zea mays
B2: I81L (protein)
chain: B1 chain with I81L, F279M, P432A
modifications: Zea mays
B3: I81Y (protein)
chain: B1 chain with I81Y, F279M, P432A
modifications: Zea mays
B4: C372L (protein)
chain: B1 chain with F279M, C372L, P432A
modifications: Zea mays
B5: L143F (protein)
chain: B1 chain with L143F, F279M, P432A
modifications: Zea mays
B6: A334P (protein)
chain: B1 chain with F279M, A334P, P432A
modifications: Zea mays
B7: A334I (protein)
chain: B1 chain with F279M, A334I, P432A
modifications: Zea mays
B8: L143W (protein)
chain: B1 chain with L143W, F279M, P432A
modifications: Zea mays
B9: M136F (protein)
chain: B1 chain with M136F, F279M, P432A
modifications: Zea mays
B10: S117V: bx9 SEQ ID NO:1 mutant (protein)
chain: B1 chain with S117V, F279M, P432A
modifications: Zea mays
B11: I78Y: bx9 SEQ ID NO:1 mutant (protein)
chain: B1 chain with I78Y, F279M, P432A
modifications: Zea mays
B12: S117I: bx9 SEQ ID NO:1 mutant (protein)
chain: B1 chain with S117I, F279M, P432A
modifications: Zea mays
B13: H24A (protein)
chain: B1 chain with H24A, F279M, P432A
modifications: Zea mays
B14: S75K: additional mutation in SEQ ID No: 17 (protein)
chain: B1 chain with S75K, S117V, A334K, P432A
modifications: Mutated Zea mays Bx9 protein sequence
B15: R449C: additional mutation in SEQ ID No: 17 (protein)
chain: B1 chain with S117V, A334K, P432A, R449C
modifications: Mutated Zea mays Bx9 protein sequence
B16: A236G: additional mutation in SEQ ID No: 17 (protein)
chain: B1 chain with S117V, A236G, A334K, P432A
modifications: Mutated Zea mays Bx9 protein sequence
B17: A433V: additional mutation in SEQ ID No: 17 (protein)
chain: B1 chain with S117V, A334K, P432A, A433V
modifications: Mutated Zea mays Bx9 protein sequence

Assay: UDP luminescence plate assay of E. coli extracts, mutants of SEQ ID No: 1, 2 mM metribuzin
Type: biochemical, Zea mays
Conditions: 2 mM metribuzin
Experimental: Optionally plate assays are stopped with brief heating to 95 C before returning to ice and addition of UDP-Glo detection reagent followed by incubation at lab temperature. […] In addition a UDP standard curve is run alongside each set of plate tests.
Assays were carried out on extracts of E. coli BL21 DE3 expressing the various C-terminally his-tagged library variants of SEQ ID NO:1 at the amino acid positions listed in Table 11 as described in Example 2 except, in this case, with 2 mM metribuzin in place of herbicide V.
Thus the ratio of the metribuzin to DMSO signal as well as the increase in signal relative to the w/t bx9 is used to help distinguish those mutations most likely to offer the highest activity to metribuzin. A follow up assay monitored by, for example, LC MS is one method to distinguish these cases more quantitatively.

With B1 the “SIGNAL: metribuzin signal of mutant divided by metribuzin signal of w/t bx9” value was 1.68.

Same assay, conditions: 2 mM metribuzin vs DMSO control, same mutant

Compared with B2, B3 is higher in “RATIO of the metribuzin signal to the DMSO signal” value (from here on “RATIO of the metribuzin signal”): 1.11 for the first, 1.12 for the second.

Compared with B4, B5 is higher in “RATIO of the metribuzin signal” value: 1.06 for the first, 1.09 for the second.

Going from B6 to B7, the “RATIO of the metribuzin signal” value rises from 0.88 to 0.89.

First: B8
Second: B9
The “RATIO of the metribuzin signal” value of the first is higher: 1.12 for the first, 1.00 for the second.

Same assay, conditions: 2 mM metribuzin; H24A null background 1.00E+05 not subtracted

For B1, the “luminescence signal with metribuzin” value was 2.08E+05.

Same assay, conditions: 2 mM metribuzin; relative to bx9 w/t

First: B2
Second: B3
The “SIGNAL: metribuzin signal of mutant divided by the signal of w/t bx9” value of the first is lower: 0.67 for the first, 0.90 for the second.

First: B4
Second: B5
The “SIGNAL: metribuzin signal of mutant divided by the signal of w/t bx9” value of the first is lower: 1.22 for the first, 1.23 for the second.

Going from B6 to B10, the “SIGNAL: metribuzin signal of mutant divided by the signal of w/t bx9” value falls from 1.24 to 1.18.

First: B1
Second: B11
The “SIGNAL: metribuzin signal of mutant divided by the signal of w/t bx9” value of the first is higher: 2.52 for the first, 1.23 for the second.

First: B7
Second: B8
The “SIGNAL: metribuzin signal of mutant divided by the signal of w/t bx9” value of the first is higher: 1.05 for the first, 0.97 for the second.

Going from B12 to B9, the “SIGNAL: metribuzin signal of mutant divided by the signal of w/t bx9” value falls from 1.99 to 0.93.

Same assay, conditions: mutants of SEQ ID No: 1; DMSO in place of metribuzin (background UDP-glucose hydrolysis)

Going from B2 to B3, the “luminescence signal in the DMSO control” value rises from 1.68E+05 to 2.25E+05.

First: B13
Second: B4
The “luminescence signal in the DMSO control” value of the first is lower: 2.60E+05 for the first, 3.22E+05 for the second.

Going from B5 to B6, the “luminescence signal in the DMSO control” value rises from 3.18E+05 to 3.97E+05.

First: B10
Second: B1
The “luminescence signal in the DMSO control” value of the first is higher: 3.38E+05 for the first, 2.75E+05 for the second.

Going from B11 to B7, the “luminescence signal in the DMSO control” value rises from 3.27E+05 to 3.29E+05.

First: B8
Second: B12
The “luminescence signal in the DMSO control” value of the first is lower: 2.42E+05 for the first, 5.14E+05 for the second.

For B9, the “luminescence signal in the DMSO control” value was 2.57E+05.

Same assay, conditions: mutants of SEQ ID No: 1 in E. coli extracts; 2 mM metribuzin; UDP luminescence

First: B2
Second: B3
The “luminescence signal observed with 2 mM metribuzin” value (“luminescence signal observed” for short) of the first is lower: 1.87E+05 for the first, 2.53E+05 for the second.

First: B13
Second: B4
The “luminescence signal observed” value of the first is lower: 2.39E+05 for the first, 3.41E+05 for the second.

Going from B5 to B6, the “luminescence signal observed” value rises from 3.45E+05 to 3.48E+05.

Going from B10 to B1, the “luminescence signal observed” value rises from 3.30E+05 to 7.06E+05.

Going from B11 to B7, the “luminescence signal observed” value falls from 3.44E+05 to 2.94E+05.

Going from B8 to B12, the “luminescence signal observed” value rises from 2.72E+05 to 5.56E+05.

In the case of B9, the “luminescence signal observed” value is reported as 2.59E+05.

Assay: UDP luminescence plate assay of E. coli extracts, mutants within SEQ ID No: 17, 2 mM metribuzin
Type: biochemical, Zea mays
Conditions: 2 mM metribuzin; additional mutation in SEQ ID No: 17
Experimental: Activities observed with metribuzin were generally lower in magnitude than seen with herbicide V in the previous examples. For example, in one plate assay run with 2 mM metribuzin using 5 ul of diluted extract of plate-grown BL21DE3 cells expressing w/t bx9 and assayed for 40 minutes (as described in Example 2) the UDP-Glo luminescence signal was ˜3.4 E6 as compared with ˜2.3E6 in the DMSO control and ˜1.7E6 in the H24A null mutant control. […] It was therefore important to assess potential improvements in the metribuzin activity of the various mutants relative to the wild type bx9 enzyme based not only on the H24A null activity control but also based upon controls with DMSO in place of metribuzin acceptor substrate. In some plate assays (using more dilute extracts) the metribuzin signals from the w/t enzyme was the same or barely greater than the DMSO control. Additionally, some mutations gave an increase in the ‘background’ UDP-glucose hydrolysis activity with just DMSO present that was the same or similar to the magnitude of the increase in signal seen with metribuzin. In these instances it is therefore uncertain from just this UDP-Glo assay method whether the specific metribuzin signal (glucosylation of metribuzin) is improved or not i.e. the signal seen with metribuzin may or may not all or to a large part be attributable to increased background hydrolysis). […] Thus the ratio of the metribuzin to DMSO signal as well as the increase in signal relative to the w/t bx9 is used to help distinguish those mutations most likely to offer the highest activity to metribuzin. A follow up assay monitored by, for example, LC MS is one method to distinguish these cases more quantitatively. The tables below summarise the results from two different sets of luminescence plate assays to detect single mutations giving improvements in the magnitude of the signal with metribuzin relative to w/t bx9 and/or the apparent specificity for metribuzin as measured by the deviation of the ratio of metribuzin to DMSO control activity from the bx9 w/t value of around unity.
A further separate screen was carried out to explore a library of additional mutations at various positions within the context of SEQ ID No: 17 for improved metribuzin activity. These were assayed, assessed and scored as above. […] These were S75K (2.5)(1.25), A236G (4.0)(1.15), A433V (3.3)(9.0) and R449C (1.8)(1.2).
A yet further and more comprehensive screen was carried out to explore saturation mutagenesis at all remaining amino acid positions within the context of SEQ ID No:17 for improved metribuzin activity. Again these were assayed, assessed and scored as above and the results of (out of the thousands screened) of the subset that were of interest are summarized in Table 16.

Going from B14 to B15, the “metribuzin signal relative to the SEQ ID No:17 control (first parentheses)” value falls from 2.5 to 1.8.

Compared with B16, B17 is lower in “metribuzin signal relative to the SEQ ID No:17 control (first parentheses)” value: 4.0 for the first, 3.3 for the second.

Going from B14 to B15, the “ratio of metribuzin to DMSO signal (second parentheses)” value falls from 1.25 to 1.2.

First: B16
Second: B17
The “ratio of metribuzin to DMSO signal (second parentheses)” value of the first is lower: 1.15 for the first, 9.0 for the second.
